T1: PSMGFR C-10 peptide
T1 peptide: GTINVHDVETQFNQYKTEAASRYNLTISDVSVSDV

T2: PSMGFR peptide
T2 construct: also called PSMGFR 45mer
T2 peptide: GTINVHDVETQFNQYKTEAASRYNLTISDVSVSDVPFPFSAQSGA

T3: PSMGFR N-30 peptide
T3 peptide: SVSDVPFPFSAQSGA

T4: PSMGFR N-19 C-5 peptide
T4 peptide: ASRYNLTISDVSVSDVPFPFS

T5: PSMGFR N-10 peptide
T5 peptide: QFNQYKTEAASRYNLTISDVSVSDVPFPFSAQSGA

B1: C2 MC-VC-PAB MMAE (conjugate, listed as Mus sp.)
heavy: EVQLEESGGGLVKPGGSLKLSCAASGFTFSGYAMSWVRQTPEKRLEWVATISSGGTYIYYPDSVKGRFTISRDNAKNTLYLQMSSLRSEDTAMYYCARLGGDNYYEYFDVWGAGTTVTVSSAKTTPPSVYAKTTPPSVYPLAPGSAAQTNSMVTLGCLVKGYFPEPVTVTWNSGSLSSGVHTFPAVLQSDLYTLSSSVTVPSSTWPSETVTCNVAHPASSTKVDKKIVPRDCGCKPCICTVPEVSSVFIFPPKPKDVLTITLTPKVTCVVVDISKDDPEVQFSWFVDDVEVHTAQTQPREEQFNSTFRSVSELPIMHQDWLNGKEFKCRVNSAAFPAPIEKTISKTKGRPKAPQVYTIPPPKEQMAKDKVSLTCMITDFFPEDITVEWQWNGQPAENYKNTQPIMDTDGSYFVYSKLNVQKSNWEAGNTFTCSVLHEGLHNHHTEKSLSHSPGK
light: DIVITQSTASLGVSLGQRATISCRASKSVSTSGYSYMHWYQQRPGQPPKLLIYLASNLESGVPARFSGSGSGTDFTLNIHPVEEEDAATYYCQHSRELPFTFGGGTKLEIKRADAAPTVSADAAPTVSIFPPSSEQLTSGGASVVCFLNNFYPKDINVKWKIDGSERQNGVLNSWTDQDSKDSTYSMSSTLTLTKDEYERHNSYTCEATHKTSTSPIVKSFNRNEC
modifications: MC-VC-PAB-MMAE
notes: ADC: anti-MUC1* antibody C2 conjugated via MC-VC-PAB linker to MMAE
B2: anti-MUC1* antibody C2 (antibody)
VH: EVQLEESGGGLVKPGGSLKLSCAASGFTFSGYAMSWVRQTPEKRLEWVATISSGGTYIYYPDSVKGRFTISRDNAKNTLYLQMSSLRSEDTAMYYCARLGGDNYYEYFDVWGAGTTVTVSSAKTTPPSVYPLAPGSAAQTNSMVTLGCLVKGYFPEPVTVTWNSGSLSSGVHTFPAVLQSDLYTLSSSVTVPSSTWPSETVTCNVAHPASSTKVDKKIVPRDCGCKPCICTVPEVSSVFIFPPKPKDVLTITLTPKVTCVVVDISKDDPEVQFSWFVDDVEVHTAQTQPREEQFNSTFRSVSELPIMHQDWLNGKEFKCRVNSAAFPAPIEKTISKTKGRPKAPQVYTIPPPKEQMAKDKVSLTCMITDFFPEDITVEWQWNGQPAENYKNTQPIMDTDGSYFVYSKLNVQKSNWEAGNTFTCSVLHEGLHNHHTEKSLSHSPGK
VL: DIVITQSTASLGVSLGQRATISCRASKSVSTSGYSYMHWYQQRPGQPPKLLIYLASNLESGVPARFSGSGSGTDFTLNIHPVEEEDAATYYCQHSRELPFTFGGGTKLEIKRADAAPTVSIFPPSSEQLTSGGASVVCFLNNFYPKDINVKWKIDGSERQNGVLNSWTDQDSKDSTYSMSSTLTLTKDEYERHNSYTCEATHKTSTSPIVKSFNRNEC
notes: Monoclonal antibody raised against the PSMGFR peptide; also called mAb C2; IgG1 C2 antibody
B3: anti-MUC1* antibody 3C2B1 (antibody, V domains shown)
VH: EVMLVESGGGLVKPGGSLKLSCAASGITFSTYTMSWVRQTPEKRLEWVATISTGGDKTYYSDSVKGRFTISRDNAKNNLYLQMSSLRSEDTALYYCARGTTAMYYYAMDYWGQGTSVTVSS
VL: DIVLTQSPASLAVSLGQRATISCRASKSISTSDYNYIHWYQQKPGQPPKLLIYLASNLESGVPARFSGSGSGTDFTLNIHPVEEEDAATYYCQHSRELPLTFGAGTKLELK
notes: Humanised form is m27; also called 32CB1

Experiments:
T47D [1] = assay: xCELLigence impedance cytotoxicity, T47D; type: cell-based, human; conditions: xCELLigence; 40-120 hours incubation; read-out: IC50, T47D
Description: (§1) An xCELLigence RTCA MP Instrument (Agilent) was used to assess real-time killing of target cancer cells). In the xCELLigence system, target cancer cells, which are adherent, are plated onto electrode array 96-well plates. Adherent cells insulate the electrode and increase the impedance. The number of adherent cancer cells is directly proportional to impedance. […] Therefore, increasing impedance reflects the growth of the cancer cells and decreasing impedance reflects the killing of the cancer cells.
(§2) Target Cancer cells (Table 9) were seeded onto a multi-electrode well plate at a density of 5000 cells/well (100 μL of a 50,000 cells/mL stock) and incubated for 24 hr in a 37° C./5% CO2 incubator. ADCs were prepared as a 2× solution in corresponding growth media and 100 μL of each concentration was added to target cells. As a positive control (100% cell killing) cells were treated with either 1% triton or 1 μM Taxol instead of ADC. After 40-120 hours incubation in a 37° C./5% CO2 incubator cell killing was assessed. In this assay, impedance is measured in real-time. When the adherent cancer cells are killed and come off the electrode surface, impedance (insulation) decreases.

T47D-MUC1* [2] = assay: xCELLigence impedance cytotoxicity, T47D-MUC1*; type: cell-based, human; conditions: xCELLigence; 40-120 hours incubation; read-out: IC50, T47D-MUC1*
Description: as §1, §2

NCI-H1975 = assay: xCELLigence impedance cytotoxicity, NCI-H1975; type: cell-based, human; conditions: xCELLigence; 40-120 hours incubation; read-out: IC50, NCI-H1975
Description: as §1, §2

T47D [3] = assay: PrestoBlue live/dead cell assay, T47D; type: cell-based, human; conditions: Presto Blue; 72-120 hour incubation
Description: (§3) Another method of measuring the killing activity of ADCs against target cancer cells is to use the PrestoBlue live/dead cell assay (ThermoFisher). Target cancer cells were seeded in a black-walled, clear-bottom 96-well tissue culture plate at a density of 5000 cells/well (100 μL of a 50,000 cells/mL stock) and incubated overnight in a 37° C./5% CO2 incubator. ADCs were prepared as a 2× solution in corresponding cancer cell growth media and 100 μL of each concentration was added to target cancer cells. As a positive control (100% killing) cancer cells were treated with 1 μM Taxol instead of ADC. After 72 hour-120 hour incubation in a 37° C./5% CO2 incubator, cell viability was measure by fluorescence using the PrestoBlue HS assay (ThermoFisher). Briefly, after the incubation period, 20 μL of PrestoBlue HS solution was added. Fluorescence (Ex 560 nm/Em 590 nm) was recorded after 30-90 min. incubation using a Tecan plate reader. Percentage viability was determined by PrestoBlue HS staining and normalized to 1 μM taxol treated cells.
(§4) The normalized fluorescence values were imported into the graph program, Sigma Plot, data plotted as ADC concentration versus normalized fluorescence signal and curve fitted using a four-parameter Hill equation: f=y0+a*x^b/(c^b+x^b) to calculate IC50 values. IC50 values for the ADCs were generally consistent between the xCELLigence and Presto Blue assays.

T47D-MUC1* [4] = assay: PrestoBlue live/dead cell assay, T47D-MUC1*; type: cell-based, human; conditions: Presto Blue; 72-120 hour incubation
Description: as §3, §4

HPAFII = assay: PrestoBlue live/dead cell assay, HPAFII; type: cell-based, human; conditions: Presto Blue; 72-120 hour incubation
Description: as §3, §4

HPAFII-MUC1* = assay: PrestoBlue live/dead cell assay, HPAFII-MUC1*; type: cell-based, human; conditions: Presto Blue; 72-120 hour incubation
Description: as §3, §4

H1975 = assay: PrestoBlue live/dead cell assay, H1975; type: cell-based, human; conditions: Presto Blue; 72-120 hour incubation
Description: as §3, §4

T47D xenograft tumors = assay: T47D breast cancer xenograft; type: in vivo, NOD/SCID mice; conditions: intraperitoneal; MMAE ADCs 5-10 mg/kg Days 7, 14, 20; deruxtecan/exatecan ADCs 20 mg/kg weekly x7
Description: (§5) For breast cancer xenografts, female NOD/SCID mice (weight 18-22 g, 6-8 weeks old, Charles River Laboratories) previously implanted with a 90-day release estrogen pellet (Innovative Research Laboratories) were subcutaneously injected under isoflurane anesthesia (ISOTHESIA, 250 ml (HENRY SCHEIN, NDC: 11695-6776-2) with one million luciferase-positive T47D breast cancer cells expressing low levels of MUC1*(ATCC) or one million luciferase-positive T47D-MUC1* cells overproducing MUC1* using a BD 26G Insulin Syringes with Detachable Needle (Fisher cat: 329652) or BD 28G Lo-Dose U-100 Insulin Syringes (Fisher cat: 329461).
(§6) Tumor volume was measured from bioluminescence images acquired with a Xenogen IVIS-Spectrum system (Perkin Elmer). Mice were injected […] into the scruff of the neck with 150 ul, 30 mg/mL, D-Luciferin (XenoLight™ D-Luciferin Potassium Salt; PerkinElmer P/N 122799), placed under isoflurane anesthesia, and photographed within 10 minutes of the Leciferin injection. Data was expressed graphically as Radiance (photons/sec) as a function of days post-tumor implantation.
(§7) Tumor mass was determined from tumors excised from mice receiving T47D cells on Day 95 and mice receiving T47D-MUC1* cells on Day 96. […]

[5] = test system: T47D-MUC1* xenograft tumors; assay: T47D-MUC1* breast cancer xenograft; type: in vivo, NOD/SCID mice; conditions: intraperitoneal; MMAE ADCs 5-10 mg/kg Days 7, 14, 20; deruxtecan/exatecan ADCs 20 mg/kg weekly x7
Description: as §5, §6, §7

PSMGFR C-10 peptide = molecular target: T1, PSMGFR C-10 peptide; assay: ELISA on PSMGFR C-10 peptide; Table 4 grade
[6] = molecular target: MUC1* on cancer cells and tumour sections (UniProt P15941); assay: IHC with C2 on untreated H1975-wt lung tumors excised from mice
[7] = molecular target: MUC1* on cancer cells and tumour sections (UniProt P15941); assay: IHC with C2 on untreated T47D-wt breast tumors excised from mice
[8] = molecular target: MUC1* on cancer cells and tumour sections (UniProt P15941); assay: IHC with C2 on untreated HPAFII-wt pancreatic tumors excised from mice
PSMGFR peptide = molecular target: T2, PSMGFR peptide; assay: peptide binding assay (FIGS. 1A, 1B)
PSMGFR N-30 peptide = molecular target: T3, PSMGFR N-30 peptide; assay: peptide binding assay (FIGS. 2A, 2B)
PSMGFR N-19 C-5 peptide = molecular target: T4, PSMGFR N-19 C-5 peptide; assay: peptide binding assay (FIGS. 2A, 2B)
PSMGFR N-10 peptide = molecular target: T5, PSMGFR N-10 peptide; assay: ELISA on PSMGFR N-10 peptide; Table 4 column 'Binds N-10', grade

Molecule | IC50 (T47D [1]) [nM] | IC50 (T47D-MUC1* [2]) [nM] | IC50 (NCI-H1975) [nM] | IC50 (T47D [3]) [nM] | IC50 (T47D-MUC1* [4]) [nM] | IC50 (HPAFII) [nM] | IC50 (HPAFII-MUC1*) [nM] | IC50 (H1975) [nM] | growth of T47D xenograft tumors (T47D xenograft tumors) | growth of T47D-MUC1* xenograft tumors [5] | binding result (PSMGFR C-10 peptide) | H-score [6] | H-score [7] | H-score [8] | binding result (PSMGFR peptide) | binding result (PSMGFR N-30 peptide) | binding result (PSMGFR N-19 C-5 peptide) | binding result (PSMGFR N-10 peptide)
B1 | 156 | 1.8 | 23 | 187 | 2.6 | 112 | 63 | 89 | inhibit the growth | inhibit the growth | – | – | – | – | – | – | – | –
B2 | – | – | – | – | – | – | – | – | – | – | no binding | 40 | 10 | 220 | – | – | – | –
B3 | – | – | – | – | – | – | – | – | – | – | no binding | – | – | – | binds | binds | binds | binds

— US20260137799A1, “ANTI-MUC1* ANTIBODY DRUG COMPLEXES AND USES THEREOF” (Minerva Biotechnologies Corporation, priority 2023, published 2026)
